Reference: the DeepSol protein solubility set

test: soluble on expression in E. coli; label from the status in PepcDB or PDB records

Sequence	soluble on expression in E. coli
SRAYDLVVIGAGSGGLEAGWNAASLHKKRVAVIDLQKHHGPPHYAALGGTCVNVGCVPKKLMVTGANYMDTIRESAGFGWELDRESVRPNWKALIAAKNKAVSGINDSYEGMFADTEGLTFHQGFGALQDNHTVLVRESADPNSAVLETLDTEYILLATGSWPQHLGIEGDDLCITSNEAFYLDEAPKRALCVGGGYISIEFAGIFNAYKARGGQVDLAYRGDMILRGFDSELRKQLTEQLRANGINVRTHENPAKVTKNADGTRHVVFESGAEADYDVVMLAIGRVPRSQTLQLEKAGVEVAKNGAIKVDAYSKTNVDNIYAIGDVTDRVMLTPVAINEGAAFVDTVFANKPRATDHTKVACAVFSIPPMGVCGYVEEDAAKKYDQVAVYESSFTPLMHNISGSTYKKFMVRIVTNHADGEVLGVHMLGDSSPEIIQSVAICLKMGAKISDFYNTIGVHPTSAEELCSMRTPAYFYEKGKRVEKIDSNL	soluble
MNMLEKIQSQLEHLSKSERKVAEVILASPDNAIHSSIAALALEANVSEPTVNRFCRSMDTRGFPDFKLHLAQSLANGTPYVNRNVNEDDSVESYTGKIFESAMATLDHVRHSLDKSAINRAVDLLTQAKKIAFFGLGSSAAVAHDAMNKFFRFNVPVVYSDDIVLQRMSCMNCSDGDVVVLISHTGRTKNLVELAQLARENDAMVIALTSAGTPLAREATLAITLDVPEDTDIYMPMVSRLAQLTVIDVLATGFTLRRGAKFRDNLKRVKEALKESRFDKQLLNLSDDR	soluble
MVSEPKVPKAPRPPKQPNVQDFQFFPPRLFELLEKEILYYRKTIGYKVPRNPDLPNSAQVQKEEQLKIDEAEPLNDEELEEKEKLLTQGFTNWNKRDFNQFIKANEKWGRDDIENIAREVEGKTPEEVIEYSAVFWERCNELQDIEKTMAQIERGEARIQRRISILEHHHHHH	soluble
MEEKFDVVIIGAGPAGLFAAYELVEKSNLKVLIIEEGGDVDQRVCPMYELGYCIGCKPCHIMSGVGGAGGLSDGTVNLRPDIGGDLTELTNDENYSWQLVWEVDQILLRHEAPRNLYKGDPEQIKYWERKAAQAGVKFIPIIQRHIGSDNTPKVIKSIKNYLEKKGVKFLLWTKALEFNKGWVKVRRGKDTFTINARYIIVAPGRGGADWFHEVAKKIGLKARHGPIDVGVRVEVPAIVMEPITSINHDPKFHIYTDTYDDFVRTFCTNPYGFVVEERYDNYVGVNGHSMREKKSNNTNFALLTRIELTEPVEDTTAYGKSIAQLATTIGGGKPIIQRLGDLRRGRRSTWSRIRKSDVEPTLKHVTPGDIAMALPHRVVTNIIEGLERLDKVIPGVASDHTLLYAPEIKYYAMRVEVNELLETNIENVFAAGDGAGLSRDIVNAAATGIMAARGILVKEGLYNLKDFKKPGNWKEKIENLEPEYLEHHHHHH	not soluble
MENEMKEKAVIFTGNSISHEDAKKILLANYQPPVRRFQLEKFIQQGYKVMGIIDGIFFDRAAVGHREIISALNAGVRVVGGASMGALRASELDTHGMIGVGKVYEWYRDGVIESDDEVAISTNPETFEPISVPLVNIRETLKAALGAGILSEKEYEDILELAISTYYPDRSYLGLTKEGAKKGLISEEKRKLLLDFCINSEVDVKKRDAVLVIETVKRLVEETEV	not soluble
MIIQCQVKSVQPLATHTYQILLQPEHAVAYQAGQYLMVVMGEKDKRPFSLASSPCRSNGELELHIGAADHSAFAHQVVEKFQQAHLNQTWVEVDVPHGNAALQESERPLLLIAGGTGFSYVRSILDHCLSQGKTQPIYLYWGARDAAQLYALNELQELAKQHAHLQVVPVVEQAQDDWAGKVGNVLQAINNDFASLEAFDIYIAGRFEMAGAAREQFTQNKQARRDRMFADAYAFI	not soluble
MGSDKIHHHHHHMEPKYTSFDKSAKTCIRQQVITEDLSWAHYQNAGERLYYQNDTQHTLSMYLDGGYETHRTDIKADYGAPSKFCLMPQGCQSHWQLGQPQQFMHLYFSDEHLKKLAVRVFDKDPRQVRLPELTFVDNPRLEALFRHQVAGLNWQTSDNHLMMEQVTDTVLVTLLQSSGFNLSVGPIKGGLAPKVAKAIKEFIYCHSHRQIYLSELAEIAQLSEYHFCRMFKCQFAMTPQEYLLQVRIEKVKQSLSHSTQSLTDIALNNGFANQSHMGRYFKKLSGMSPGEYQKHHQGR	not soluble
TTQNELLNRIAELETKVAFQDNVIEELNQVLIHHQFVLDKLQTQVRHFANKFKNIQSSNVASQAEETPPPHY	not soluble
GDQRFDVLITGGTLVDVVTGELRPADIGIVGALIASVHEPASRRDAAQVIDAGGAYVSPGLIDTHMHIESSMITPAAYAAAVVARGVTTIVWDPHEFGNVHGVDGVRWAAKAIENLPLRAILLAPSCVPSAPGLERGGADFDAAILADLLSWPEIGGIAEIMNMRGVIERDPRMSGIVQAGLAAEKLVCGHARGLKNADLNAFMAAGVSSDHELVSGEDLMAKLRAGLTIELRGSHDHLLPEFVAALNTLGHLPQTVTLCTDDVFPDDLLQGGGLDDVVRRLVRYGLKPEWALRAATLNAAQRLGRSDLGLIAAGRRADIVVFEDLNGFSARHVLASGRAVAEGGRMLVDIPTCDTTVLKGSMKLPLRMANDFLVKSQGAKVRLATIDRPRFTQWGETEADVKDGFVVPPEGATMISVTHRHGMAEPTTKTGFLTGWGRWNGAFATTVSHDSHNLTVFGGNAGDMALAANAVIGTGGGMAVASEGKVTAILPLPLSGLVSDAPLEEVARAFEDLREAVGKVVEWQPPYLVFKACFGATLACNIGPHQTDMGIADVLTGKVMESPVIEV	not soluble
MGSDKIHHHHHHASTKVAKSKAKGKVIVYYVYGKRGHTGKYLWSKKTLTGKIGTTYHTKALDLLNDSGYMALASHSKNTSGKFTRKTTKVYYRYYDVIERDYEFKHEADLYMELTGDHRIGLFDRNLQDGVEVVVERTNFSKPYYDVSYSNRVDTGHGSGLKEFHYRFGSTHRFKDNRDGNIYTMALTNSGGITFHAVATKHSTMNELVQVSAHGKLLTAKIRK	not soluble
MGSDKIHHHHHHMRQGAGLGYRRDLAEGFLQLRNNDRIQFMEIAPENWIKMGGFARYQFDKVAEKIPILIHGLSLSLGGQAPLDKELLSSIKAMIKQYNTPFFSDHLSFCECDGHLYDLLPMPFTDEAVKHTAARIREVQDFLEIQISVENTSYYLHSETSTMNEVEFLNAIVQEANCGIHLDVNNIYVNAVNHGLLDPHVFIDNVDLKRVNYIHIAGHDDEHAATEVQIQTSESFNKIKGDLRHLPPLLVDTHGENVKGTVWDLLEYTYARLSHMPPTLLERDFNFPPFEKLCKEVDIIHQLQQKYVKKRGLSWLKI	not soluble
SLIDKIKSNARDLRRNLTLQERKLWRYLRSRRFSDFKFRRQHPVGSYILDFACCSARVVVELDGGQHDLAVAYDSRRTSWLESQGWTVLRFWNNEIDCNEETVLENILQELNRRSPSP	soluble
MSLRQPNPSQKKAPTGQVRIISGLWRGRKLPVHDAEGLRPTTDRVKETLFNWLAQEVPNARCLDLFAGSGGLGFECASRQANQVTMLELNPLAFQQLKTNVQSLKAENIELIHTDALAFLRQSGKPYDVVFIDPPFRQGLLQETTQLLEQNGWLAPQAMIYIECEKELPLTELPPHWHLHREKSAGQVCYREGHHHHHH	not soluble
NRSLNELSLSDILIAADVEGGLHAVDRRNGHIIWSIEPENFQPLIEIQEPSRLETYETLIIEPFGDGNIYYFNAHQGLQKLPLSIRQLVSTSPLHLKTNIVVNDSGKIVEDEKVYTGSMRTIMYTINMLNGEIISAFGPGSKNGYFGSQSVDCSPEEKIKLQECENMIVIGKTIFELGIHSYDGASYNVTYSTWQQNVLDVPLALQNTFSKDGMCIAPFRDKSLLASDLDFRIARWVSPTFPGIIVGLFDVFNDLRTNENILVPHPFNPGDHESISSNKVYLDQTSNLSWFALSSQNFPSLVESAPISRYASSDRWRVSSIFEDETLFKNAIMGVHQIY	soluble
MSLSTLRIAMTAADIPLTLGQPDQGYEGNRFTGIPLYDALVEWDLSQGEKPSGLVPGLATEWHIDPQNTSRWIFTLRPGVKFHDGTEVNADAIVWNVDKVLNKAAPQYAPGQIGNTLSRMPTLTGAEKIDDHTVALTTSEPDALLPYNITNLFIVSPTAWQKQYDAVPASVGDSAARSKQAWTAFAAHAVGSGPFKLEKLVPRQQLILDKNPDYWNKDRIPRVDKVVLIPLPEANARTAALLSKQVDWIEAPAPDAIDQIKSQGFHLYANTQPHLWPWQFSFEKGSPWQDIRVRKAANLCLNRAELKSYLGGYMTEATGVYEADSPWHGKPTFQIKYDPDVARQLMTEAGYSASKPLHVTVATSASGSGQMQPLPMNEYIQQSLKSCFFNVDIKVVEWNTLFTNWRLGARDPSAKGIDAINVSAAVNDPYFGLIRFSTAKAFPPVATNWGYFSTPETEKLAAAVKHAFTPAEMNKAAGELHAALVDQVPFLFVAHDVGPRAISPAVTGVVQPQSWFIDLSLVSKKEGHHHHHH	soluble
MYQVIKMYGDWEPWWFIDGWQDDIIDEQQFSDWQEALDYFNQEWQRMKAIFPSYHSQKNLLATFWEKEDKRWCEDCDEDLQQFHSLLLLKNKDIVPSNNYIPEFEQRNDSPQVAYLCKLNL	not soluble
MTTEYLDEERDLPLPRQKKGIDHTQTEPIRGFFGVKDMFAFENVGFTRSSEGKRYLVCGECEQGPVGFVDPVTEMNYVSPERLDVLPDVAAAAVEAGK	not soluble
MGSDKIHHHHHHMENKYLVSIIVPVHNTADYLHKCIESLRSQTLQQIEIILVDNLSVDGSSEICDEYAKIDKRIKVLHLSIAGLSIARNAGMRIASAPYIGFVDSDDYVEPAMFEKMLDAMVQSDAEIAYCNFLLEYEFKPNESPYRNSGDIVIRDPKNVLQDMMMEKVSCSACTKLYKSGFLTSLQFPEGKNYEDRLVMYEWVALCKKVVWVDSPFYHYVERQTSICHTMSPMNLYHYFLAEYARMRFMEKYSLFEEEDLFKIRTRLIGTCLTIFKEILLKVNLREFKEPVKDMRQKMKEIAALPEDTYELKYRRRVRKIAYHWHLYYLTHFLFKKGGDS	not soluble
MREVISIHVGQAGVQIGNACWELYCLEHGILPDGTSMEPDGNSGSLGTFFSDTGYGRHVPRSIFVDLEPTVVDEIRTGAYKKLFHPEQMLTGKEDAANNYARGHYTVGKEIIDTTLDRIRRLANNCEGLQGFFVFHSFGGGTGSGFTSMLMERLSAEYGKKSKLEFSIYPAPQISTSVVEPYNSILTTHTTLEHSDCSFMVDNEAIYDICRRNLRVSRPTYNNLNRIISQVVSSITASLRFDGALNVDLNEFQTNLVPYPRIHFPLVAYNPLISSAHHEFLSVDEITKSCFEASNQMVKCDPKHGKYMAVCLLYRGDVVPKDVSAAIKSIKTQRSVQFVDWCPTGFKVGLNYQPPTVIPGGDMAKVPRAVCMLSNTTAIAEAWQRLDYKFDLMYAKRAFVHWYVGEGMEEGEFSEAREDLAALEKDYEEVGADSDANDNGDDEY	not soluble
MSAKMDEQALLALLRELAIDSQRVEHPAIASIEEYYAQGIELPDQGIKNLFLRNRKGTRHYLVLLDERKEADLPGIAEQIGESRLSFASVERLREYLGVELGCVTPFALVNDPQHRVEVLLDDAIRQDQLLGFHPLVNTATECIRYADLLAFLAHTGHEPRLIRA	not soluble
MGSDKIHHHHHHMLGKTANGLFWMSRYLERAENTARLIETGQRIALTRLGSAEDEWVSILQSAGSLGGFREAYDTHGQDAAVDWMLRGKDNPSSIMSSIASARQNARLVRAAITGEVWEAINATYMTASDLLARKVSARDLPDVLASIRQHTALMRGMVHGTMLRNDIYDFLRIGTFLERADNTARILDVKYYVLLPSVSAVGSSIDNVQWESILRSVSARGGFRMEYGADGGPQEIAHFLIFDKRMPRSLAFCVSKIKDNLRYLNAGQPTPSPSQELVTHLENTYLSHGIEEVFDYGLHEFIEKMLELLLELAHQIQLDYRFYE	not soluble
